{"source": "patent US20110191903A1", "about": "“ENGINEERING PLANT RESISTANCE TO DISEASES CAUSED BY PATHOGENS” (Pioneer Hi-Bred International, Inc., priority 2009, published 2011)", "proteins": {"B1": {"name": "Ceriporiopsis subvermispora oxalate oxidase OXOX-G, SEQ ID NO: 19 (Gelatoporia subvermispora) (protein)", "chain": "RPTGNDVFYLPRAVAVSSAGASSPASLSSGTESSSAAEPTETVPFASDDPNPRLWNIDTQDLSVVAPERGPLGAKIIGPDNLPLDIQNADTLAPPTTDSGSIPNAKWPFALSHNTLYTGGWVRIQNNEVLPIAKAMAGVNMRLEAGTIRELHWHNTPEWAYILKGTTQITAVDENGKNYLANVGPGDLWYFPEGMPHSLQGTNASDEGSEFLLIFPDGTFDASNQFMITDWLAHTPKDVIAKNFGVDISEFDRLPSHDLYIFPGVAPPLDATAPEDPQGTIPLPYSFEFSKVVPTQYAGGTVKIADTRTFPISKTISVAEITVEPGAMRELHWHPTEDEWTFFIEGQARVTLFAGESNAQTYDYQGGDIAYIPTAYGHYVENSGNTTLRFLEIFNSPLFQDVSLTQWLANTPRAIVKATLQLSDNVIDSLNKSKAFVVASD"}}, "substrate": "O=C(O)C(=O)O", "assay": "Oxalate oxidase kinetics, coupled horse radish peroxidase assay, OXOX-G", "format": "biochemical, Ceriporiopsis subvermispora", "excerpt": "Sequences of both OXOX C and G alleles were published by Escutia et al., 2005 and were deposited with EMBL: OXOX-C partial genomic DNA, Acession No. AJ746414; OXOX-C partial cDNA, Acession No. AJ563659; OXOX-G genomic DNA, Acession No. AJ563660; OXOX-G cDNA, Acession No. AJ746412. See also, Escutia et al., Cloning and sequencing of two Ceriporiopsis subvermispora bicupin oxalate oxidase allelic isoforms: implications for the reaction specificity of oxalate oxidases and decarboxylases. (2005). Based on published sequence, mature proteins of OXOX C (SEQ ID NO: 21) and G (SEQ ID NO: 22) were synthesized and fused to N-terminal barley alpha amylase signal sequence (BAA ss; SEQ ID NO:3). The fungal OXOX coding sequence was synthesized with codon usage suitable for expression in soybean (FIG. 1A) and E. coli (FIG. 1B).\nThe E. coli expression system was based on the published protocol of Escutia et al. Escutia et al., Cloning and sequencing of two Ceriporiopsis subvermispora bicupin oxalate oxidase allelic isoforms: implications for the reaction specificity of oxalate oxidases and decarboxylases. (2005). The coding sequence for the mature OXOX enzyme was inserted in E. coli expression vector pET32 (Invitrogen) to include a 6× histidine tag at the C-terminus. The resulting expression plasmid was transformed into E. coli strain BL21Star pLysS (Invitrogen).\nE. coli cultures were grown at 37° C. At optical density 0.4, arabinose was added to a concentration or 0.4%. After another hour of growth at 37° C., MnCl2 was added to 5 mM and IPTG to 1 mM. Cultures were then grown at 25° C. for 16 hours. Cells were harvested by centrifugation at 4000 rpm for 10 min. The supernatant was discarded and cell pellets were kept at −80° C. for at least one hour. Pellets were resuspended in total 40 ml of lysis buffer with 50 mM phosphate buffer pH7, 2 mg/ml protease inhibitor (sigma P-8465), 100 mM KCL, 1/1000 lysozyme, 1/2000 endonuclease, and incubated at 37° C. with shaking for one hour, followed by sonication. Cellular debris was removed by centrifugation and the clarified supernatant was poured into a new tube. Nickel resin (Qiagen) was added. After a short period of incubation, the slurry was poured onto a column and washed with buffer. Purified OXOX protein was eluted from the resin in 50 mM succinate pH 5, 100 mM KCl. The E. coli expression procedure was scalable allowing large scale protein production for kinetic analysis as well as small scale production for high throughput screening of libraries.\nOxalate oxidase enzymatic activity was determined in a coupled reaction. Oxalate oxidase converts oxalic acid to carbon dioxide and hydrogen peroxide. In the presence of horse radish peroxidase, hydrogen peroxide reacts with 3-methyl-2-benzothiazolinone hydrazone (MBTH) and N,N-dimethylaniline (DMA) to form indamine dye, which can be detected spectrophotmetrically or colorimetrically as described by Laker, M. F., Hoffman, A. F., and Meeuse, J. D. (1980) Clinical Chemistry 26, 827-830. The coupled reaction was used for characterization of oxalate oxidase kinetic properties as well as in a screening procedure to identify oxalate oxidase variants with improved enzymatic properties.\nMore modest improvements in Km and Kcat were observed under lower pH conditions. Coupled reaction was preformed as described in Example 3. Enzyme kinetic parameters were determined by standard methods as described in Segel (1976) Biochemical calculations, 2nd Edition. John Wiley & Sons, London, New York, Sydney, Toronto."}
{"protein": "B1", "values": [{"measurement": "Km", "setting": "other: pH 3.8, pH 3.8", "result": 400, "unit": "µM"}, {"measurement": "kcat", "setting": "other: pH 3.8, pH 3.8", "result": 4.80, "unit": "s⁻¹"}, {"measurement": "Km", "setting": "other: pH 4.8, pH 4.8", "result": 1370, "unit": "µM"}, {"measurement": "kcat", "setting": "other: pH 4.8, pH 4.8", "result": 2.56, "unit": "s⁻¹"}, {"measurement": "Km", "setting": "other: pH 5.8, pH 5.8", "result": 6140, "unit": "µM"}, {"measurement": "kcat", "setting": "other: pH 5.8, pH 5.8", "result": 0.82, "unit": "s⁻¹"}]}
